According to article PMC11189624:

Key:
[1] = target: Mlph-ABD labelled with ATTO 488 NHS Ester dye (mouse) (UniProt Q91V27); assay: MST; Monolith NT.115, 25 °C; Mlph-ABD labelled with ATTO 488 at 20 nM; two-fold dilution series (16) of Myo5a-MTD or Myo5a-MTDΔG from 50 uM; 50 mM Tris-HCl pH 7.8, 100 mM NaCl, 10 mM MgCl2, 0.05% Tween 20
[2] = target: Melanophilin GTBM (Mus musculus) (UniProt Q91V27); settings: cited from earlier work
Chain of Melanophilin GTBM (Mus musculus) (Q91V27 176-201): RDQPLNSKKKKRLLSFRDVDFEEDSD

Chain of Myosin-5a GTD (Q99104 1469-1853): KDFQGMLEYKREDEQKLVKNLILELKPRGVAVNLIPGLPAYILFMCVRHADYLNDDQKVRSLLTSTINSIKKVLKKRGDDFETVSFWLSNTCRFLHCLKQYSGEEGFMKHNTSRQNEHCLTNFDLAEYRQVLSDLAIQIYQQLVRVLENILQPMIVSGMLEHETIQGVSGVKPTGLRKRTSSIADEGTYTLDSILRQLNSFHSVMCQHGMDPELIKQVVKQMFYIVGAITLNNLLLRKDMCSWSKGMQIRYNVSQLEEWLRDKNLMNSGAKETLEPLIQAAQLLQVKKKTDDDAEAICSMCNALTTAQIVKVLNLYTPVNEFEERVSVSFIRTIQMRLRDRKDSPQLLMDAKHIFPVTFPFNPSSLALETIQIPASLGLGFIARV
Chain of Mlph-ABD labelled with ATTO 488 NHS Ester dye (mouse) (Q91V27 401-590): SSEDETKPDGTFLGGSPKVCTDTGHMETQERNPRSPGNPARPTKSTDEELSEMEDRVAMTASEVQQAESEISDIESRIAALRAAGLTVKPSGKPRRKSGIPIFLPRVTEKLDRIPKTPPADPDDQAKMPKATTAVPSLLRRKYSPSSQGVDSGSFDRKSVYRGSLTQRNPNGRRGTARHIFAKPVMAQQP

With “Flag-Myo5a-MTD (residues 1106–1467), bacterial-expressed (domain or fragment)” the Kd [1] was 562 nM.
In the case of Myosin-5a GTD (from UniProt Q99104), the Kd [2] is listed as 1000 nM.
